According to the RNAGym collection of RNA variant scans (doi:10.1073/pnas.2313332121):
This sample holds only a part of the variants without activity.

B1: TPR 5TU (parent)
chain: GGAUCUUCUCGAUCUAACAAAAAAGACAAAUCUGCCACAAAGCUUGAGAGCAUCUUCGGAUGCAGAGGCGGCAGCCUUCGGUGGCGCGAUAGCGCCAACGUUCUCAACUAUGACACGCAAAACGCGUGCUCCGUUGAAUGGAGUUUAUCAUG

Variants of: B1
Assay: polymerase ribozyme fitness, log enrichment relative to wild type (log ratio); higher = more active; in vitro selection for triplet polymerase activity
In short: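 Mutant libraries of each subunit of a heterodimeric triplet polymerase ribozyme were built by PCR and transcribed. Each library went through one round of in vitro selection in triplicate: annealing with biotinylated primer, partner subunit and triplets, frozen incubation at −7 °C, gel excision of extended constructs, streptavidin-bead capture and RT-PCR. Input and output libraries were Illumina-sequenced; only genotypes with ≥10 input reads and ≥1 read per output were kept. Fitness is log2(genotype enrichment/wild-type enrichment), using inverse-variance-weighted replicate averages.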

Row | Variant | polymerase ribozyme fitness (log ratio)
1 | C132A G143U | ≤ -4.2
2 | G128A U139G | -4.08
3 | A150G G152U | -3.43
4 | G136C U145A C149G | ≤ -4.2
5 | G140C G143U | -3.7
6 | G128U U139C | -3.96
7 | U144C A147G | -0.508
8 | G141A G143C | -3.92
9 | U148G A150G | -3.79
10 | A147C U148A | -3.81
11 | U135A U148G | -3.41
12 | U127A U144C | -3.74
13 | U148C | -1.53
14 | U148A | -2.72
15 | U148G | -3.37
16 | A137C A150G | -4.17
17 | A142U U144C | -3.6
18 | U134G U148A | -3.87
19 | C132G G141C | -3.73
20 | A142U U146G | -1.2
21 | G133U G141U | -2.6
22 | G133U G141C | -3.81
23 | G136A A142C | -0.134
24 | U139A U146A | ≤ -4.2
25 | C131U U146C G152C | -1.2
26 | U127G | -3.06

Row | Variant | polymerase ribozyme fitness (log ratio)
27 | U127C | -1.3
28 | U127A | -2.94
29 | U135C G141U | -1.69
30 | A137C C149U | -3.9
31 | U135A C149G | -4.09
32 | G128U G141A | -3.74
33 | U146A U148A | -3.37
34 | A137C U144A U146A | -3.95
35 | G136C A142C U146A | -2.66
36 | U130C A138G | -3.28
37 | U144A A150U | -1.5
38 | A137G U148A | -3.67
39 | U130G U135C | -4.07
40 | G140A U146G | -3.51
41 | G126A U148C | -2.93
42 | G141A U146C | 0.27
43 | G136A | 0.579
44 | G136U | -1.9
45 | G136C | -2.62
46 | C129A G133C | -3.55
47 | G128U U139A A142G | -4.07
48 | G140C U148G | -4.14
49 | A137G G143C | -3.85
50 | U127A U139G G152U | ≤ -4.2
51 | U139C | -2.57
52 | U139A | -3.57

Row | Variant | polymerase ribozyme fitness (log ratio)
53 | U139G | -0.159
54 | G128A U146G | -4.16
55 | G133A A142G | ≤ -4.2
56 | A142G | -0.833
57 | A142C | -0.793
58 | A142U | -0.482
59 | G136A G141U | 1.57
60 | U134G U144G | -1.51
61 | G140U U145C | -3.66
62 | U127G G143A A147G | ≤ -4.2
63 | G140U G143A | ≤ -4.2
64 | G141U U146G | 1.06
65 | U134A G141C | -3.42
66 | U144G U148G | -3.38
67 | G133U U144A | -3.29
68 | G133C | -1.65
69 | G133A | -3
70 | G133U | -2.62
71 | U145G | -0.131
72 | U145C | 0.096
73 | U145A | 0.192
74 | U127G U145G | ≤ -4.2
75 | U151G G152U | -3.49
76 | U135G A142C | -2.54
